Here are results for seven molecules from US20230212266A1 (FRED HUTCHINSON CANCER CENTER, published 2023).

Test [1] addresses T1, SARS-CoV-2 receptor binding domain (RBD) (SARS-CoV-2, UniProt P0DTC2 319-591). The test is described as follows: BLI: mAb on anti-human Fc probe, dipped in the antigen.
Test [2] deals with T1, SARS-CoV-2 receptor binding domain (RBD). The test is described as follows: BLI, mAb on anti-human Fc probe, antigen in solution.
For test [3] the target is unchanged. The experiment in a line: BLI: mAb on anti-human Fc probe, dipped in the antigen. This is another data set of the same source.
For test [4] the target is unchanged. The test is described as follows: BLI, mAb on anti-human Fc probe, antigen in solution. This is another data set of the same source.
Test [5] has the same target. The experiment in a line: BLI: mAb on anti-human Fc probe, dipped in the antigen. This is another data set of the same source.
For test [6] the target is unchanged. The test is described as above. The source holds these as a separate data set.
The target is the same in test [7]. The experiment in a line: BLI, mAb on anti-human Fc probe, antigen in solution. This is another data set of the same source.

B1: CV2-45 (antibody, V domains shown)
VH: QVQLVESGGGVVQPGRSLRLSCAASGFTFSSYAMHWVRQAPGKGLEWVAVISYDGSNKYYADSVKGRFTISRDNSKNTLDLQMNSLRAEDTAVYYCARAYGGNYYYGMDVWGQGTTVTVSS
VL: AIQLTQSPSSLSASVGDRVTITCRASQGISSALAWYQQKPGKAPKLLIYDASSLESGVPSRFSGSGSGTDFTLTISSLQPEDFATYYCQQFNNYPLTFGGGTKVEIK
As for B1, in test [1], the binding result is “no binding”.

B2: CV2-43 (antibody, V domains shown)
VH: QVQLVQSGAEVKKPGSSVKVSCKASGGTFSSYAISWVRQAPGQGLEWMGGIIPIFGTANYAQKFQGRVTITADESTSTAYMELSSLRSEDTAVYYCARAYSYDSSGYSPDYWGQGTLVTVSS
VL: EIVLTQSPATLSLSPGERATLSCRASQSVSSYLAWYQQKPGQAPRLLIYDASNRATGIPARFSGSGSGTDFTLTISSLEPEDFAVYYCQQRSNWPPKLTFGGGTKVEIK
notes: expressed as IgG
B2: the binding result in test [2] is on record as “no binding”.

B3: CV2-47 (antibody, V domains shown)
VH: QVQLVQSGAEVKKPGSSVKVSCKTSGGTFSNYAISWVRQAPGQGLEWMGGIIPIFGTANYAQKFQGRVTFTADESTSTAYMELSSLRSEDTAVFYCVSRIAAAADFDYWGQGTLVTVSS
VL: EIVLTQSPATLSLSPGERATLSCRASQSISSYLAWYQQKPGQAPRLLIYDASNRATGIPARFSGSGSGTDFTLTISSLEPEDFAVYYCQQRSNWPPLLTFGGGTKVEIK
As for B3, the binding result in test [3] is reported as “no binding”.

B4: CV2-40 (antibody, V domains shown)
VH: QVQLVESGGGLVKPGGSLRLSCAASGFTFSDYYMSWIRQAPGKGLEWVSYISSRSSYTNYADSVKGRFTISRDNAKNSLYLQMNSLRAEDTAVYYCARGYDSSGYHYSLWGQGTLVTVSS
VL: QSALTQPASVSGSPGQSITISCTGTSSDVGGYNYVSWYQQHPGKAPKLMIYEVSNRPSGVSNRFSGSKSGNTASLTISGLQAEDEADYYCSSYTNSRTLDVVFGGGTKLTVL
notes: expressed as IgG
On to B4, for which the binding result in test [4] is reported as “no binding”.

B5: CV2-44 (antibody, V domains shown)
VH: QVQLVQSGAEVKKPGASVKVSCKASGYTFISYGISWVRQAPGQGLEWMGWISGYNGNTNYAQKFQGRVTMTTDTSTSTAYMELRSLRSDDTAVYYCARVRIFGVVIIVDTAMVLDYWGQGTLVTVSS
VL: QSVLTQPPSVSAAPGQKVTISCSGSSSNIGNNYVSWYQQLPGTAPKLLIYENNKRPSGIPDRFSGSKSGTSATLGITGLQTGDEAHYYCGTWDSSLSAGVFGGGTKLTVL
In the case of B5, the binding result in test [5] was “no binding”.

B6: CV2-50 (antibody, V domains shown)
VH: QVQLVESGGGVVQPGRSLRLSCAASGFTFSSYGMHWVRQAPGKGLEWVAVISYDGSNQYYADSVKGRFTISRDNSKNTLYLQMNSLRAEDTAVYYCAKDPTIFGVVLQIPRFDYWGQGTLVTVSS
VL: EIVLTQSPATLSLSPGERATLSCRASQSVSSYLAWYQQKPGQAPRLLIYDASNRATGIPARFSGSGSGTDFTLTISSLEPEDFAVYYCQQRSNWPPTFGQGTKLEIK
With B6, in test [6], the binding result was “no binding”.

B7: CV2-42 (antibody, V domains shown)
VH: QVQLVQSGAEVKKPGASVKVSCKASGYTFTSYGISWVRQAPGQGLEWMGWISAYNGNTNYAQKLQGRVTMTTDTSTSTAYMELRSLRSDDTAVYYCARDRRGSGWSWDYYYYGMDVWGQGTTVTVSS
VL: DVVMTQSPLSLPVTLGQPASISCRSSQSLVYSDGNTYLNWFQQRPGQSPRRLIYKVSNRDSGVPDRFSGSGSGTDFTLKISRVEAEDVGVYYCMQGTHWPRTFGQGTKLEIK
notes: expressed as IgG
Regarding B7, the binding result in test [7] is “no binding”.
